Legend:
[1] = biological target: chicken PHT1 (purified, wild type) (chicken); assay: thermal shift (nanoDSF); concentration-dependent thermal shift of PHT1 with dipeptides; KD fitted by a modified Hall's method
[2] = biological target: chicken PHT1 (purified, wild type) (chicken); assay: thermal shift (nanoDSF); TASL peptide titration: PHT1 with eleven 2-fold peptide dilutions from 100 µM; gel filtration buffer with 5% DMSO; KD fitted by a modified Hall's method

Kd [1]	Kd [2]	Substance
73 µM		Arginine-Phenylalanine dipeptide
63 µM		Lysine-Valine dipeptide
	0.4 µM	TASL peptide with a length of 14 residues
	0.36 µM	TASL_(1-13) peptide
